Test results as given in patent US20210095028A1 (NANJING LEGEND BIOTECH, published 2021).

T1: human TIGIT over-expressed on cells (human, UniProt Q495A1 22-244)
T1 construct: also called CHO-K1/human TIGIT cells; CHO cells expressing human TIGIT
T1 sequence: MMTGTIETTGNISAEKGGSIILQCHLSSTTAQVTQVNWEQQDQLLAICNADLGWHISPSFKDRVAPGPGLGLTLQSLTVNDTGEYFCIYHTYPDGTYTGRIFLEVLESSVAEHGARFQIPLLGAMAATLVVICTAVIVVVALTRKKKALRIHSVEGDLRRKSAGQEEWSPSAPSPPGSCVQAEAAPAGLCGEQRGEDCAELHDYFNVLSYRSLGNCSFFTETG

T2: Human TIGIT protein with HIS tag (human, UniProt Q495A1 22-141)
T2 construct: A soluble analyte is probably only the extracellular part; also called human TIGIT recombinant protein; not shown: HIS tag
T2 sequence: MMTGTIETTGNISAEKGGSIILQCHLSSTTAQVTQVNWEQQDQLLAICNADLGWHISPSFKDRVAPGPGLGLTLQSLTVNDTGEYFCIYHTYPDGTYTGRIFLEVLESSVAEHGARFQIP


Columns and labels:
[1] = biological target: T1, human TIGIT over-expressed on cells; experiment: competition FACS, CHO cells expressing human TIGIT; competitor PVR recombinant protein
Method: The mixture was equilibrated for 30 minutes at room temperature, and washed three times with FACS buffer (PBS containing 1% BSA). PE/Cy5 Streptavidin secondary antibody was then added to the mixtures and incubated for 15 minutes at room temperature. Subsequently, the cells were washed with FACS buffer and analyzed by flow cytometry. Data was analyzed with PRISM™ (GraphPad Software, San Diego, Calif.) using non-linear regression, and IC₅₀ values were calculated (FIGS. 4A-4B and Table 6).

[2] = biological target: T3, cynomolgus TIGIT over-expressed on CHO-K1 cells (cynomolgus, UniProt A0A7N9I9V4 89-312); experiment: FACS, CHO-K1 cells over-expressing cynomolgus TIGIT
T3 construct: whole, on cells; also called CHO-K1/cynomolgus TIGIT cells
Method: (§1) The mixture was equilibrated for 30 minutes at room temperature and washed three times with FACS buffer (PBS containing 1% BSA). iFluor labeled goat anti-mouse IgG as the secondary antibody was added and incubated at room temperature for 45 min. Finally, the cells were washed 3 time with PBS, and the signal was read by FACS BD Calibur. Data was analyzed with PRISM™ (GraphPad Software, San Diego, Calif.) using non-linear regression and EC₅₀ values were calculated.

[3] = biological target: T1, human TIGIT over-expressed on cells; experiment: cell-based or functional assay
[4] = biological target: T1, human TIGIT over-expressed on cells; experiment: FACS, CHO-K1 cells over-expressing human TIGIT
Method: as §1

[5] = biological target: T2, Human TIGIT protein with HIS tag; experiment: SPR Biacore T200; antibody Fc-captured, TIGIT-His analyte
Method: Binding kinetics of mouse anti-human TIGIT monoclonal antibodies to human TIGIT were determined using a Surface Plasmon Resonance (SPR) biosensor, BIACORE® T200 (GE Healthcare; Little Chalfont, United Kingdom). […] Each mouse anti-human TIGIT monoclonal antibody was immobilized on the sensor chip through the Fc capture method. Human TIGIT protein with HIS tag was used as the analyte. The dissociation (kd) and association (kₐ) rate constants were obtained using the BIACORE® T200 evaluation software. The apparent equilibrium dissociation constants (KD) were calculated from the ratio of kd over kₐ.

[6] = biological target: T1, human TIGIT over-expressed on cells; experiment: cell-based or functional assay; remark: listed apart in the source

T3 sequence (A0A7N9I9V4 entry or part of it): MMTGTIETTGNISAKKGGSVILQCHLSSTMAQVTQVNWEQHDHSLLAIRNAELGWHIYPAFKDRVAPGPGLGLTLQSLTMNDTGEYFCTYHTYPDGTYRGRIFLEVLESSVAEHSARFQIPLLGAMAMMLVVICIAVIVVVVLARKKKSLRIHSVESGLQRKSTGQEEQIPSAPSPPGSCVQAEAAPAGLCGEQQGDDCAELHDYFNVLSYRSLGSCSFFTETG

Row | Bottom (best-fit) [1] | IC50 [1] | Top (best-fit) [1] | Bottom (best-fit) [2] | EC50 [2] | Top (best-fit) [2] | luciferase signal in T cell activation, Bottom (best-fit) [3] | luciferase signal in T cell activation, EC50 [3] | luciferase signal in T cell activation, Top (best-fit) [3] | Bottom (best-fit) [4] | EC50 [4] | Top (best-fit) [4] | Kd [5] | koff [5] | kon [5] | IL-2 secretion in T cell activation, Bottom (best-fit) [6] | IL-2 secretion in T cell activation, EC50 [6] | IL-2 secretion in T cell activation, Top (best-fit) [6] | Binder
1 | 8.8 | 1.1 nM | 69.7 | 7.5 | 8.38 nM | 66.2 | 4.5 | 8.54 nM | 99 | 16.2 | 0.3 nM | 98.7 | 6.7 nM | 0.008 s⁻¹ | 1.2e+06 M⁻¹ s⁻¹ | – | – | – | 128E3G7F5 (antibody, V domains shown, Mouse monoclonal antibody; also called mouse anti-human TIGIT monoclonal antibody 128E3G7F5) VH: EVLLQQSGPELVKTGASVKISCKASGYSFTAYYMHWVKQSHGKSLEWIGYISCYNGATTYNQKFKGKATFTVDTSSTTAYMQFNSLTSEDSAVYYCARRVYYGYDEALVYWGQGTSVTVSS VL: DIVMTQSPSSLSVSAGEKVTMTCKSSQSLLNSGNQKNYLAWYQQKPGQPPKLLIYGASTRGSGVPDRFTGSGSGTDFTLTISSVQAEDLAVYYCQNDHSYPYTFGGGTKLEIK
2 | 11.2 | 0.9 nM | 131 | – | – | – | – | – | – | 12.9 | 1.28 nM | 276 | 2.6 nM | 0.0033 s⁻¹ | 1.3e+06 M⁻¹ s⁻¹ | – | – | – | 8F2D8E7 (antibody, V domains shown, Mouse monoclonal antibody; also called mouse anti-human TIGIT monoclonal antibody 8F2D8E7) VH: QVQLQQSGAELVKPGASVKLSCKTSGYTFTSYWIQWIKQRPGQGLGWIGEIFPGTGTTYYNEKFKGKATLTIDTSSSTAYMQLSSLTSEDSAVYSCARSRDGKVVDYWGQGTSVTVSS VL: DVQMTQTTSSLSASLGDRVTISCRASQDISNFLNWYQQRPDGTVKLLIYYTSKLHSGVPSRFSGSGSGTDYSLTIRNLEKEDIATYFCQQGNTPPYTFGGGTKLEIK
3 | – | – | – | – | – | – | – | – | – | 6.83 | 11.2 nM | 188 | 18 nM | 1.2 s⁻¹ | 6.7e+07 M⁻¹ s⁻¹ | – | – | – | 16F10H12C11 (antibody, V domains shown, Mouse monoclonal antibody; also called mouse anti-human TIGIT monoclonal antibody 16F10H12C11) VH: EVLLQQSGPELVKPGASVKIPCKASGYTFTDYNIDWVKQSHGKSLEWIGDINPNTGGTIYNQKFKGKATLTVDKSSSTAYMELRSLTSEDTAVYYCARRWLLLVYAVDYWGQGTSVTVSS VL: QIVLTQSPAIMSASPGEKVTISCSASSSVTYMYWYQQKAGSSPKPWIYRTSNLASGVPARFGGSGSGTSYSLTISSMEAEDAATYYCQQYHSFPPTFGGGTKLEIK
4 | 64.6 | 1.6 nM | 132 | – | – | – | – | – | – | 9.18 | 3.15 nM | 346 | 11 nM | 0.0088 s⁻¹ | 840000 M⁻¹ s⁻¹ | – | – | – | 48B5G4E12 (antibody, V domains shown, Mouse monoclonal antibody; also called mouse anti-human TIGIT monoclonal antibody 48B5G4E12) VH: QVQLQQPGAELVKPGASVKMSCKASGYTFTSYNMHWVKQTPGQGLEWIGGIYPGNGATSYNQKFKGKATLTADKSSSTAYMQLSSLTSEDSAVYYCARSGLRAMDYWGQGTSVTVSS VL: QIVLTQSPAIMSASPGEKVTMTCSASSSVSYMYWYQQKTGSSPRLLIYDTSNLASGVPVRFSGSGSGTSYSLTISRMEAEDAATYYCQQWSSYPYTFGGGTKLEIK

The next lines start with the binder.

Row | Binder | Bottom (best-fit) [1] | IC50 [1] | Top (best-fit) [1] | Bottom (best-fit) [2] | EC50 [2] | Top (best-fit) [2] | luciferase signal in T cell activation, Bottom (best-fit) [3] | luciferase signal in T cell activation, EC50 [3] | luciferase signal in T cell activation, Top (best-fit) [3] | Bottom (best-fit) [4] | EC50 [4] | Top (best-fit) [4] | Kd [5] | koff [5] | kon [5] | IL-2 secretion in T cell activation, Bottom (best-fit) [6] | IL-2 secretion in T cell activation, EC50 [6] | IL-2 secretion in T cell activation, Top (best-fit) [6]
5 | 70A11A8E6 (antibody, V domains shown, Mouse monoclonal antibody; also called mouse anti-human TIGIT monoclonal antibody 70A11A8E6) VH: DVQLQESGPGLVKPSQSLSLTCTVTGYSITSDYAWNWIRQFPGNKLEWMGYIIYSGSTSYNPSLKSRISITRDTSKNQFFLQLNSVTTEDTATYYCARGWFRRPDYWGQGTTLTVSS VL: DIVMTQSHEFMSTSLGDRVSITCKASQDVSTAVAWHQQKPGQSPKQLIYSASYRYTGVPDRFTGSGSGTDFTFTISNMQAEDLAVYYCQQHYSVPLTFGAGTKLELK | 19.6 | 0.7 nM | 113 | – | – | – | – | – | – | 11 | 0.96 nM | 263 | 5.2 nM | 0.0044 s⁻¹ | 860000 M⁻¹ s⁻¹ | – | – | –
6 | 100C4E7D11 (antibody, V domains shown, Mouse monoclonal antibody; also called mouse anti-human TIGIT monoclonal antibody 100C4E7D11) VH: EVMLVESGGGLVKPGGSLKLSCAASGFTFSFYTMSWVRQTPEKRLEWVATISSGGGSTYYSDSVKGRFTISRDNAKNNLYLQMTSLRSEDTALYYCSRSLPVDYWGQGTTLTVSS VL: QIVLTQSPAIMSASLGERVTMTCTASSSVSSTYLHWYQQKPGSSPKLWIYSTSNLASGVPARFSGSGSGTSYSLTISSMEAEDAATYYCHLYHHSPYTFGGGTKLEIK | 12.9 | 1.2 nM | 66.5 | 16.9 | 1.16 nM | 410 | 11.6 | 3.46 nM | 117 | 14 | 0.81 nM | 107 | 0.51 nM | 0.00033 s⁻¹ | 650000 M⁻¹ s⁻¹ | 107 | 0.98 nM | 191
7 | 92E9D4B4 (antibody, V domains shown, Mouse monoclonal antibody; also called mouse anti-human TIGIT monoclonal antibody 92E9D4B4) VH: EVMLVESGGGLVKPGGSLKLSCAASGFTFSFYTMSWVRQTPEKRLEWVATISGGGGDTYYPDNVKGRFTISRDNAKNNLYLQMSSLRSEDTALYYCARSLPVDFWGQGTTLTVSS VL: QIVLTQSPAIMSASLGERVTMTCTASSSVSSTYLHWYQQKPGSSPKFWIYSTSNMASGVPARFSGSGSGTSYSLTISSMEAEDAATYYCHYYHRSPYTFGGGTKLEIK | 10.3 | 2 nM | 65.5 | 17.7 | 1.16 nM | 348 | 3.4 | 3.9 nM | 141 | 7.99 | 0.8 nM | 97 | 0.57 nM | 0.00041 s⁻¹ | 710000 M⁻¹ s⁻¹ | 106 | 3.36 nM | 274
8 | 83G6H11C12 (antibody, V domains shown, Mouse monoclonal antibody; also called mouse anti-human TIGIT monoclonal antibody 83G6H11C12) VH: EVMLVESGGGLVKPGGSLKLSCAASGFTFSFYTMSWVRQTPEKRLEWVATISSGGGSTYYSDSVKGRFTISRDNAKNNLYLQMTSLRSEDTALYYCSRSLPVDYWGQGTTLTVSS VL: QIVLTQSPAIMSASLGERVTMTCTASSSVSSSYLHWYQQKPGSSPKLWIYSTSNLASGVPARFSGSGSGTSYSLTISSMEAEDAATYYCHLYHHSPYTFGGGTKLEIK | 12.9 | 0.7 nM | 70.2 | 16.1 | 1 nM | 326 | 9.6 | 4.4 nM | 145 | 9.57 | 0.68 nM | 115 | 0.7 nM | 0.00043 s⁻¹ | 610000 M⁻¹ s⁻¹ | 104 | 0.83 nM | 171
9 | 11D8E12A4 (antibody, V domains shown, Mouse monoclonal antibody; also called mouse anti-human TIGIT monoclonal antibody 11D8E12A4) VH: EVLLQQSGPELVKPGASVKIPCKASGYTFTDYNMDWVKQSHGKSLEWIGDINPNNGGTIYNQKFKGKATLTVDKSSSTAYMELRSLTSEDTAVYYCARRWLLLVYTMDYWGQGTSVTVSS VL: QIVLTQSPAIMSASPGEKVTISCSASSSVSYMYWYQQKPGSSPKPWIYRTSNLASGVPARFSGSGSGTSYSLTISSMEAEDAATYYCHQYHNYPPTFGGGTKLEIK | 21.2 | 73.5 nM | 108 | – | – | – | – | – | – | 8.3 | 16.3 nM | 159 | 14 nM | 0.0087 s⁻¹ | 640000 M⁻¹ s⁻¹ | – | – | –
10 | 139E2C2D2 (antibody, V domains shown, Mouse monoclonal antibody; also called mouse anti-human TIGIT monoclonal antibody 139E2C2D2) VH: EVQLVESGGDLVKPGGSLKLSCAASGFTFSSYGMSWVRQTPDKRLEWVAIISSGGNYTYYPDSVKGRFTISRDNAKNTLYLQMSSLKSEDTAMYYCARQIHYFFAMDYWGQGTSVTVSS VL: DIQMTQSPASLSVSVGETVTITCRASENIYSNLAWYQQKQGKSPQLLVYAATNLADGAPSRFSGSRSGTQYSLKINSLQSEDFGSYYCQHFWGTAYTFGGGTKLEIK | 10.4 | 0.7 nM | 73.8 | 7.6 | 18.5 nM | 53.8 | – | – | – | 13.8 | 0.37 nM | 89.9 | 3 nM | 0.0062 s⁻¹ | 2.1e+06 M⁻¹ s⁻¹ | – | – | –
